This test concerns the target proprotein convertase PC2. The test is described as follows: enzyme inhibition, pERTKR-MCA hydrolysis (fluorescence), competitive Ki.

Sequence of proprotein convertase PC2 (P21661 109-637): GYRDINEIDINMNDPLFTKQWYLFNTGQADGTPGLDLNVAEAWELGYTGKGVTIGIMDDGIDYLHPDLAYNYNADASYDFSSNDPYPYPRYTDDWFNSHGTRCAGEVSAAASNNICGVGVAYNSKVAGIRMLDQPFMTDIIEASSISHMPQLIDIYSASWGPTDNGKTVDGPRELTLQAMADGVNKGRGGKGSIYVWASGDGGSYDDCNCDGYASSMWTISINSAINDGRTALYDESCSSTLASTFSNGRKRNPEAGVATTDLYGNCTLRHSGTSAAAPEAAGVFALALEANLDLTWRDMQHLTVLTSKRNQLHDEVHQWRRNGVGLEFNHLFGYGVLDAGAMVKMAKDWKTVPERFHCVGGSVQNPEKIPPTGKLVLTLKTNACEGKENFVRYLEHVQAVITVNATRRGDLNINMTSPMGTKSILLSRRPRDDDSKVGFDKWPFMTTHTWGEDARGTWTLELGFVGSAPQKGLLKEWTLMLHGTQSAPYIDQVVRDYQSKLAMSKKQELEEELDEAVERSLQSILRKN

Ac-MRKRRR-NH2 (peptide): the Ki (commonly a dissociation constant, usually derived from enzyme kinetics or from competition with a known ligand) was 1500 µM.

The values are drawn from patent US20030087827A1.
